Experiments:
c-Jun (unmodified) [1] = experiment: thermal melting curve, mixture (FIG. 4)
[2] = target: bHLH MAX (unmodified Max); experiment: homodimer, study of FIG. 9 (method not given)
[3] = target: c-Myc bHLH protein (murine) (UniProt P01108); experiment: heterodimer with c-Myc, study of FIG. 9 (method not given)
c-Jun (unmodified) [4] = experiment: from thermal melts, Kd at 37 °C (FIG. 4)
Target sequence in this assay (chain, from a related filing, as listed by the source): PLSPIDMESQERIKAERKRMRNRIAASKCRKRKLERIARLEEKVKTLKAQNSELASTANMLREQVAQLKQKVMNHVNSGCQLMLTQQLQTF

c-Fos (unmodified), sequence (P01100 other isoform, or with tags, fused parts or gaps limits assumed): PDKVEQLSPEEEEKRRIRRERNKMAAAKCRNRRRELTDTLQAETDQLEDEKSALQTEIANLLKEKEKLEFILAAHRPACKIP
bHLH MAX (unmodified Max), sequence (P61244 22-113): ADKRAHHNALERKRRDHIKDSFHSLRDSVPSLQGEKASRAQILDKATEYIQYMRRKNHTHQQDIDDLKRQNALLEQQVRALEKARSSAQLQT

| Tm (c-Jun (unmodified) [1]) [°C] | Kd [2] [nM] | Kd [3] [nM] | Kd (c-Jun (unmodified) [4]) [nM] | Substance |
| --- | --- | --- | --- | --- |
| 53 | – | – | – | 0heptad-Fos (c-Fos with the basic region deleted) |
| – | 6000 | 30 | – | bHLH MAX (unmodified Max) |
| 50 | – | – | 200 | c-Fos (unmodified) (from UniProt P01100 128-207) |

Reference: patent US20030027314A1
